Test: soluble on expression in E. coli; label from the status in PepcDB or PDB records
For “MNGGCDLWIGCARWLRDMKVLTTDKNGTMLEFASVLRDGILLCRLANTLVPNGIDQKKIMRTNQPSPFLCCNNINYFAMFCKTYFNLEDADLFTAEDLYYMNGFQKVLKTLSFLSHTKESLSRGVDPFPDTDNNQEGTSNGSEFEDDVEIYQSLHDNIENVDPNRTIYGPITSADPEEQQSEQLYDRIVTNRKPSMNENDLQNTPTLKRNRCIRELYDTEKNYVAQALVTIIKTFYEPLKGIIPTSDYNIIFGNIEEINVLHTALLADLEYPVKVALGLSDATPPRPISLNECVPQTIGEVFIKYRDQFLAYGKYCSNLPDSRKLSNELLKTNEFISRNINELTAQGNCKFGMNDLLCVPFQRLTKYPLLLKELQKKTDLASPDRKSLEEAVEVMEDVCNYINEESRDTNAIKVIDEIEQSITDLSMPLNVKLHDYGRVNLDGEVKMAESTLTQAGKPKQRYIFLFDKVIVVCKAANKVMAAKTTGASARTNTFTYKNAYVMSELTIDKNASLDVKSGGTITRRTQYVIIMTRDRNENNEITQLTFYFKNEATRNNWMTALLLSKSNVSPTDYLRDTNHKVAFHSFRVDVKNPATCDVCDKLMKGLQYQGYKCEFHEGDIVVANSNSTPSDLSYLQFAKGDRIEVIKMQGHNRFTGCLINNRNRTGLVHLDHVSQSRTTSMIGLSPIDSPAGSIAPRVVRNESTVLPNKLLSDGSSRSLSGPHGSRSSRNSSSSTINGSMDSVPRQQDYVNTEISEFLWYMGEMERAKAESTLKGTPNGTFLVRYSKNRKQTAISLSYKNDVKHMIIEQNSDGKVYLDEDYIFNSTVELVQYYRSNNLIEIFAALDTCLKNPYSQCKVFKAVHDYDAPSPNNEGKFLSFKTGDIVVLLDTVGEDRGWWKGQVNNKSGFFPLSYVKPYDPATEGSSSPVTPTSSSS”, the “soluble on expression in E. coli” value was “not soluble”.
For “MGSIWELDFYSRPILDENQKKVWEVVICESPLDIRTKTDSLFRYAQYCPSTEVNSAWLRTAIQEAISKAGKAPIKIRFFRRQMNNMIVKACEDAGIPALPSRRTLALNQWLKQRMEEVYPQEPGYQGVTTPSVRLDSPLPQRLPDALEGQQWVFVSLSAADLAEMPDWEIGFSEAFPLDFVQVSPETRIPGVLIFSPRALPIAGWMSGLELAFLRVDTSQGMRLVLETGATESWILANIKNPTTVQEARGFEEAKQKANGVHFIGVQSNPEAESFAGFWLLQELGVLEHHHHHH”, the “soluble on expression in E. coli” value was “not soluble”.
For “MSDSQEQLISSENTEVDKQAEEDRKLRRLNRRKALALERSPLPVPKLGRVLLSANSTIDLTNEDDDPSNKWFKKTFNAEKIPKLAKSPEEAKLFAVPRKISKNAPKSLLTSETLKKKLQASMSAKRRKEQEQRRKMYEEDNEHLKAGSDEEEEEDVVFKKKKGKKPVNEEEYKSEDDEDYEPENSGEEDSDEKNNGRADDEMSVNLLNDSFTYDVFNNVKRSGPGSTVSNFDSRSEADVVEKNGVVQLPTMTEITGGSNDILNLCPGSFGVSQSAGFPDTLQMLIEEDTTERKINLPQNSTSVSSDKPRLEESESEDEDDVGVKRRLPAVKNHRVLDSDEEDDVIEETLPSQDVFGSGTLEDSETIKEICEKSGEFTEKIETVLEEKTELKRVVLSDGEDSDEEAEEAEEEGDDEEEPEEDDIESENDEAETEGVEAPDPNFDDEDDELAILKRLQHQEYKQKIKKRTLFDDEASLSGDDVGSDLEDEEGMENVYEAEEGDADDVPDNDTIRRQNHKLLLKQENDKEQRELAKLQDRLLADGDLGGVETNRQFRFKLREEVQIQMGDDVDGNDGDGEDDEPEEDEQKKKERAEMIKFKYEHAEELMLLDEPKQGDDMFARAGKLFKKTEKTVIEFSEETMFKPRLSKPSLLSKTTLAVTFQEVLNGPGGAAKQMYVQSFEKPTPLSTGHISSPSSRLSTGKRLLKSPESSASAKRVRSSKLSSLE”, the “soluble on expression in E. coli” value was “not soluble”.
With “SLNTGEPAPVLSSPPPADVSTFLAFPSPEKLLRLGPKSSVLIAQQTDTSDPEKVVSAFLKVSSVFKDEATVRMAVQDAVDALMQKAFNSSSFNSNTFLTRLLVHMGLLKSEDKVKAIANLYGPLMALNHMVQQDYFPKALAPLLLAFVTKPNSALESSSFARHSLLQTLYKV” the “soluble on expression in E. coli” value was “soluble”.
In the case of “MGSDKIHHHHHHMAYGGRITLNVRIALVGEELEIRENVNIEIEEGIITHIGNGFSSEGITFKNGILIPGIVNAHVHSADFICQEMGYNMPISKVVGDPHSVKYECFAKNTKESIMNSIERFVLRARELGSNVMIDFREQGLEGSLISSTIKKKMATNGVKYYFLGRLEEDEFKDIRNLNSLYKIADGYGLSSAFSTSEIELIKHVFNNKIRSVHVSETIKHWLRDDLEYVMKRYEPNLIIHGTYLSEEEIDIMRYRKASIVYCPRSNLWFSVGIPKVINGLKSGVNLLIGTDNGGVLDPDMWKEMETLLLISRVQDPLSDHSLQILKASTINAYKFLGIRGWIEEGNPIEAGLLVLEGDSTGILNSNNKYIGIIKRGNKIIYNLGAIQKII”, the “soluble on expression in E. coli” value was “not soluble”.
For “MAHHHHHHMALLEWARQDATMKSSLELYCGPASKDLMIMDIPANVAVDAYLWEGLLVAESMLEADGTLLVVSPHAFSVRVRRFLQWRFLRAQCAVSEAGAVHYAVCSTVAAGFGDAAVRRDDFPGQLATGKRRPCKWNPYRRPEKRKFVASLRPWFTNAPFVKDALRCSLERERDAQERLRDADDAFFAVAHEMVEKGVHYSHPND”, the “soluble on expression in E. coli” value was “not soluble”.
For “MSFVKKTKNFFGLDGEADPYMEHSDAYYDEPRYEPAPAYSAPRYEEPIYASARPRAARPMPTHIVPVRLLTYSDAAIKVGDPFRDGDAVVFDMSDMHKGEAKRIIDFAAGLCFALRGQMRKLDGRIFALVPESASVDENDLKHAAGLIHLEHHHHHH”, the “soluble on expression in E. coli” value was “not soluble”.
With “MEVQFKNTRKGYYLNSERIELHKGDVVAVEANPGHDIGTVTLTGKLVKLQMRKHRYNTNNGEPFKIYRIAKQGDLDKYCEAKAREYDTMIQSRQISAELNLDMKIGDVEYQGDGNKAIFYYIADERVDFRQLIRVLAETFHIRVEMKQIGARQEAGRIGGIGPCGRQLCCSAWKMNFVSVNTSAARYQDLALNPQKLTGLCAKLKCCLNYEVDAYVEARKKMPSPEIVLETKESAYHYFKADVFRREVSYSTVPNAPVNLTTISARRAFEVISQNKQGFKPVSLEYDDKKQSSGHELSDILTDNSLTRFDDALSRRRRRNGNGNRDFSDREKAGEPHRTPDSIQPTPRVRSSSRMPSREKSPRPEGGDRRENMRERSRGDARFARPYTNEGGSERMEGARRVVGSGRRPPRQSTPRQEDRQGERKEE” the “soluble on expression in E. coli” value was “not soluble”.
In the case of “MSFDSLGLSPDILRAVAEQGYREPTPIQQQAIPAVLEGRDLMASAQTGTGKTAGFTLPLLQHLITRQPHAKGRRPVRALILTPTRELAAQIGENVRDYSKYLNIRSLVVFGGVSINPQMMKLRGGVDVLVATPGRLLDLEHQNAVKLDQVEILVLDEADRMLDMGFIHDIRRVLTKLPAKRQNLLFSATFSDDIKALAEKLLHNPLEIEVARRNTASDQVTQHVHFVDKKRKRELLSHMIGKGNWQQVLVFTRTKHGANHLAEQLNKDGIRSAAIHGNKSQGARTRALADFKSGDIRVLVATDIAARGLDIEELPHVVNYELPNVPEDYVHRIGRTGRAAATGEALSLVCVDEHKLLRDIEKLLKKEIPRIAIPGYEPDPSIKAEPIQNGRQQRGGGGRGQGGGRGQQQPRRGEGGAKSASAKPAEKPSRRLGDAKPAGEQQRRRRPRKPAAAQ”, the “soluble on expression in E. coli” value was “soluble”.
With “ATCDDGRTTANAACCILFPILDDIQENLFDGAQCGEEVHESLRLTFHDAIGFSPTLGGGGADGSIIAFDTIETNFPANAGIDEIVSAQKPFVAKHNISAGDFIQFAGAVGVSNCPGGVRIPFFLGRPDAVAASPDHLVPEPQDSVDSILARMGDAGFSPVEVVWLLASHSIAAADKVDPSIPGTPFDSTPGVFDSQFFIETQLKGRLFPGTADNKGEAQSPLQGEIRLQSDHLLARDPQTACEWQSMVNNQPKIQNRFAATMSKMALLGQDKTKLIDCSDVIPTPPALVGAAHLPAGFSLSDVEQACAATPFPALTADPGPVTSVPPVPGS” the “soluble on expression in E. coli” value was “soluble”.
With “MSLRERPVIDELSKVKKLKLTGQTEALFESWRSSWDEIETRLFPDLEEVLLEAEMNTDRYKFRSATHAENDIEQMLVVIEKQMDQILGGLKELLISEEKNAKESRATKEKFAELRREVLTRGFKLGETLPYIETKLSELSESLNSYDSLTDQGDHLEAREIVIVVQKEMQVIEAQMERIPSLLHETDTILPEEMTKLRAGYEEMVRKGYYLAQMELDKEISRMKNQIDKMKKNVINLDLDEAEQGVEELHNEIDLFYDTLEHEAEARHFVKENHSPTSDKLQRQNAVSDALAEQITEVKQTYHVAEDDLAVYLKTSAKLSEAKENFEQLTALIASGEIAYSAAQDTLKEIDAALITISAEQDKFAEELRSLRKDELEARDDAERMRRAIITLDRKMERERLPGLPEEYLSLREHMGESINALEKRLEEKPLNMKAVSQDWRIAEEDLTHLTEKAEEMMENVRLVEHVIQYANRYRLRNKELADELVQAENHFYNDYQYKKALEIAVTALEKVETGAFKKVEKAYESKVSVDEGHHHHHH” the “soluble on expression in E. coli” value was “not soluble”.
With “MDTAGDTKTTDDGGVVNITYMHRLPDSEGMTLVNDIVAKWNKQHPDIQVKATKFDGKASDMIKKLETDVKSGEAPDLAQVGYAELPEVFTKGLLQDVTQYAEQYKNDFASGPYSLVQVGGKAYGLPQDTGPLVYFYNKAEFEKLGITEIPQTADEFIAAAKTAAAAGKYIMSYQPDEAGNMISGLAGASGGWYKVKGDSWVVNTETDGSKATADFYQQLLDAKAATTNPRWDPSFDASIKDGSLIGTVAAAWEAPLFMTSSGGTGSGEWQVAQLGDWFGNAGKTGPDGGSAVAVLKNSKHPKEAMEFLDWFNTQVPDLVSQGLVPAATTEDAETPSEWSTFFGGQDIMKEFKTANNNMGDFTYMPGFSAVAAKMNETAAKATDGSGKVADIFSDAQTTSVDTLKNFGLSVSE” the “soluble on expression in E. coli” value was “soluble”.
In the case of “MGSDKIHHHHHHMKISLGPLLYCWEKQQVIDFYQQVANSQIPLVYLGEAVCSRRRELKWGDYLELAKMLKSAGKDVVLSTLALIEAPSEYTELKRQVDNGEFMIEANDMAAVYLAKEHKQPFVCGASINNYNRASLDILQRLGMQRFVMPVELSKTWLSQVVDKKPSFEVEVLGHGYLPLAHSARCFTARHSQLAKDSCETVCRQYSKGLLAQTQEAQPLLRLNGIQTQSASCVDLRSEISAMVKIGVDVFRVSPSSLACIAKADALVEALNSGAMDAQYPLSDEHCNGYWFGEAGLKSLS”, the “soluble on expression in E. coli” value was “not soluble”.
In the case of “MAAWTPDLEAELSQLLKDWLKQQGRTQADLRRSLKAVSTRMPALLEVLEREHRLNGLSGLLARLCRVETEWHGGADHTSEAAEQSDPFGQLDLLLQEIRQDCPS”, the “soluble on expression in E. coli” value was “not soluble”.
In the case of “MAAPSMKERQACWGARDLYWRCLDDNAEDAARCQKLRSSFEASCPQQWIKYFDKRRDYLKFKEKFEAGGFQSSQSTENS”, the “soluble on expression in E. coli” value was “soluble”.
In the case of “MGSDKIHHHHHHMPFANPQEAIDFLDKHPQVQHVEVFIIDPNGIPRGKLLHRQEVLSMYRHGRPLPSTILGLTVQGDDVEDTGLVWEVGDADCLAFPIEGGLLMQPWRAQPTAQVHLTMHPEAGMPAAVADPRLVLSKVIDSLQADGFYPVMAAELEFFLLDQRFDANGRPQPAMQSDGHRPHQTQVYGILELERLQPFLDDLYHACEVQGIPARTAISEYAPGQVEITLEHRFDALQAMDEAVRYKRLVKGVAAKHGMQACFMAKPFGELAGSGMHMHVSLADADGNNRFASDNPEGTPELTQSIAGMMATLEDAQLLFCPNANSFRRFQSASYAPIAKTWGVNNRTVSFRVPGGPAPSRHVEHRICGADANPYLAAAAILAACHHGIRNQLSPGQAIVGNGYEGKHQTLPTDWLSALTNFERSEWMKSVLGEDFHRIYGRIKRAEYQEFMAEVGQQDWHWYLTHA”, the “soluble on expression in E. coli” value was “not soluble”.
For “MGSDKIHHHHHHMQLAQARNDNGERFVLVIEDDPTQARRLDDVNSVHALALTALDRKVGLAALIKEWPGDARVDAVALADKGQLLAPLDHPDPAHLLVTGTGLTHLGSAEGRDKMHRQMNEADQSDQPLTDSMKMFRKGLEGGKPAPGDFGVQPEWFYKGDGGIVMAPGEALRMPHFALDGGEEPEVAGLYLIDNDGVPRRIGYALGNEFSDHVTERENYLYLAHSKLRACSFGPTLLIDELPDDVQGTSRIRRGDEVLWEKPFISGEANMCHTLANLEAHHFKYAQFCRPGDVHVHFFGTATLSFSDGIIPQPGDVFEIDAKPFALPLRNPLSKDAVAPAPSVKPL”, the “soluble on expression in E. coli” value was “not soluble”.

From the DeepSol protein solubility set
